To fix the notation:
B1: equine IgG7 N434A mutant (antibody, part only; not given: variable domains, not shown: another chain or arm of the molecule)
constant: ASTTAPKVFPLASHSAATSGSTVALGCLVSSYFPEPVTVSWNSGALTSGVHTFPSVLQSSGLYSLSSMVTVPASSLKSQTYICNVAHPASSTKVDKKIVIKECGGCPTCPECLSVGPSVFIFPPKPKDVLMISRTPTVTCVVVDVGHDFPDVQFNWYVDGVETHTATTEPKQEQNNSTYRVVSILAIQHKDWLSGKEFKCKVNNQALPAPVQKTISKPTGQPREPQVYVLAPHRDELSKNKVSVTCLVKDFYPTDIDIEWKSNGQPEPETKYSTTPAQLDSDGSYFLYSKLTVETNRWQQGTTFTCAVMHEALHAHYTEKSVSKSPGK
B2: equine IgG7 N434G mutant (antibody, part only; not given: variable domains, not shown: another chain or arm of the molecule; small tags and cut ends)
constant: ASTTAPKVFPLASHSAATSGSTVALGCLVSSYFPEPVTVSWNSGALTSGVHTFPSVLQSSGLYSLSSMVTVPASSLKSQTYICNVAHPASSTKVDKKIVIKECGGCPTCPECLSVGPSVFIFPPKPKDVLMISRTPTVTCVVVDVGHDFPDVQFNWYVDGVETHTATTEPKQEQNNSTYRVVSILAIQHKDWLSGKEFKCKVNNQALPAPVQKTISKPTGQPREPQVYVLAPHRDELSKNKVSVTCLVKDFYPTDIDIEWKSNGQPEPETKYSTTPAQLDSDGSYFLYSKLTVETNRWQQGTTFTCAVMHEALHGHYTEKSVSKSPGK
B3: equine IgG7 N434D mutant (antibody, part only; not given: variable domains, not shown: another chain or arm of the molecule)
constant: ASTTAPKVFPLASHSAATSGSTVALGCLVSSYFPEPVTVSWNSGALTSGVHTFPSVLQSSGLYSLSSMVTVPASSLKSQTYICNVAHPASSTKVDKKIVIKECGGCPTCPECLSVGPSVFIFPPKPKDVLMISRTPTVTCVVVDVGHDFPDVQFNWYVDGVETHTATTEPKQEQNNSTYRVVSILAIQHKDWLSGKEFKCKVNNQALPAPVQKTISKPTGQPREPQVYVLAPHRDELSKNKVSVTCLVKDFYPTDIDIEWKSNGQPEPETKYSTTPAQLDSDGSYFLYSKLTVETNRWQQGTTFTCAVMHEALHDHYTEKSVSKSPGK
B4: equine IgG7 N434F mutant (antibody, part only; not given: Variable domains, not shown: another chain or arm of the molecule; small tags and cut ends)
constant: ASTTAPKVFPLASHSAATSGSTVALGCLVSSYFPEPVTVSWNSGALTSGVHTFPSVLQSSGLYSLSSMVTVPASSLKSQTYICNVAHPASSTKVDKKIVIKECGGCPTCPECLSVGPSVFIFPPKPKDVLMISRTPTVTCVVVDVGHDFPDVQFNWYVDGVETHTATTEPKQEQNNSTYRVVSILAIQHKDWLSGKEFKCKVNNQALPAPVQKTISKPTGQPREPQVYVLAPHRDELSKNKVSVTCLVKDFYPTDIDIEWKSNGQPEPETKYSTTPAQLDSDGSYFLYSKLTVETNRWQQGTTFTCAVMHEALHFHYTEKSVSKSPGK
B5: equine IgG7 N434C mutant (antibody, part only; not given: variable domains, not shown: another chain or arm of the molecule)
constant: ASTTAPKVFPLASHSAATSGSTVALGCLVSSYFPEPVTVSWNSGALTSGVHTFPSVLQSSGLYSLSSMVTVPASSLKSQTYICNVAHPASSTKVDKKIVIKECGGCPTCPECLSVGPSVFIFPPKPKDVLMISRTPTVTCVVVDVGHDFPDVQFNWYVDGVETHTATTEPKQEQNNSTYRVVSILAIQHKDWLSGKEFKCKVNNQALPAPVQKTISKPTGQPREPQVYVLAPHRDELSKNKVSVTCLVKDFYPTDIDIEWKSNGQPEPETKYSTTPAQLDSDGSYFLYSKLTVETNRWQQGTTFTCAVMHEALHCHYTEKSVSKSPGK
B6: equine IgG7 N434E mutant (antibody, part only; not given: variable domains, not shown: another chain or arm of the molecule)
constant: ASTTAPKVFPLASHSAATSGSTVALGCLVSSYFPEPVTVSWNSGALTSGVHTFPSVLQSSGLYSLSSMVTVPASSLKSQTYICNVAHPASSTKVDKKIVIKECGGCPTCPECLSVGPSVFIFPPKPKDVLMISRTPTVTCVVVDVGHDFPDVQFNWYVDGVETHTATTEPKQEQNNSTYRVVSILAIQHKDWLSGKEFKCKVNNQALPAPVQKTISKPTGQPREPQVYVLAPHRDELSKNKVSVTCLVKDFYPTDIDIEWKSNGQPEPETKYSTTPAQLDSDGSYFLYSKLTVETNRWQQGTTFTCAVMHEALHEHYTEKSVSKSPGK

In general, Kd refers to the constant that tells how readily two partners part at equilibrium.

The target of this test is equine FcRn (large alpha subunit p51) in complex with equine beta-2-microglobulin (equine) (UniProt F6XZ61). Description: SPR (Biacore), pH 6.
Chain of UniProt F6XZ61 (F6XZ61 entry or part of it, one chain of several): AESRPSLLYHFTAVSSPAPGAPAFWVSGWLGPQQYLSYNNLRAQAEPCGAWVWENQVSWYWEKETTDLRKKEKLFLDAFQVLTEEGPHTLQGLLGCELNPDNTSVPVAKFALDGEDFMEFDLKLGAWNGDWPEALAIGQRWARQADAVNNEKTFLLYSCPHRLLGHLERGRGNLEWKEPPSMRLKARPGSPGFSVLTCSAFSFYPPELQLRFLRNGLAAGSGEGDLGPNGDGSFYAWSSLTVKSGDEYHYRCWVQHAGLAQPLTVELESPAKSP
The molecule B1 gave a Kd of 36.4 nM. The molecule B2 yielded a Kd of 7400 nM. The molecule B3 returned a Kd of 1.1 nM.

B4 returned a Kd of 7.4 nM. Molecule B5 had a Kd of 2.5 nM. Next, B6: 6.1 nM.

Source of the values: US20260070987A1.
